Laboratory results: patent US20230374148A1, “BINDING MOLECULES THAT MULTIMERISE CD45” (UCB BIOPHARMA SRL, priority 2020, published 2023)

What was measured:
[1] = target: T1, CD45 domains 1-4 of the extracellular domain (UniProtKB P08575, residues 225-573) with C-terminal TEV cleavage site and 10-His tag (human); assay: mass photometry of the mixture of CD45 ECD and 4133-6294 BYbe, not pre-incubated [C]
[2] = target: T2, human CD45 on cells (PBMC, whole blood cells, macrophages, leukaemia and lymphoma cell lines) (human, UniProt P08575 26-1306); assay: cell-based or functional assay
T2 sequence: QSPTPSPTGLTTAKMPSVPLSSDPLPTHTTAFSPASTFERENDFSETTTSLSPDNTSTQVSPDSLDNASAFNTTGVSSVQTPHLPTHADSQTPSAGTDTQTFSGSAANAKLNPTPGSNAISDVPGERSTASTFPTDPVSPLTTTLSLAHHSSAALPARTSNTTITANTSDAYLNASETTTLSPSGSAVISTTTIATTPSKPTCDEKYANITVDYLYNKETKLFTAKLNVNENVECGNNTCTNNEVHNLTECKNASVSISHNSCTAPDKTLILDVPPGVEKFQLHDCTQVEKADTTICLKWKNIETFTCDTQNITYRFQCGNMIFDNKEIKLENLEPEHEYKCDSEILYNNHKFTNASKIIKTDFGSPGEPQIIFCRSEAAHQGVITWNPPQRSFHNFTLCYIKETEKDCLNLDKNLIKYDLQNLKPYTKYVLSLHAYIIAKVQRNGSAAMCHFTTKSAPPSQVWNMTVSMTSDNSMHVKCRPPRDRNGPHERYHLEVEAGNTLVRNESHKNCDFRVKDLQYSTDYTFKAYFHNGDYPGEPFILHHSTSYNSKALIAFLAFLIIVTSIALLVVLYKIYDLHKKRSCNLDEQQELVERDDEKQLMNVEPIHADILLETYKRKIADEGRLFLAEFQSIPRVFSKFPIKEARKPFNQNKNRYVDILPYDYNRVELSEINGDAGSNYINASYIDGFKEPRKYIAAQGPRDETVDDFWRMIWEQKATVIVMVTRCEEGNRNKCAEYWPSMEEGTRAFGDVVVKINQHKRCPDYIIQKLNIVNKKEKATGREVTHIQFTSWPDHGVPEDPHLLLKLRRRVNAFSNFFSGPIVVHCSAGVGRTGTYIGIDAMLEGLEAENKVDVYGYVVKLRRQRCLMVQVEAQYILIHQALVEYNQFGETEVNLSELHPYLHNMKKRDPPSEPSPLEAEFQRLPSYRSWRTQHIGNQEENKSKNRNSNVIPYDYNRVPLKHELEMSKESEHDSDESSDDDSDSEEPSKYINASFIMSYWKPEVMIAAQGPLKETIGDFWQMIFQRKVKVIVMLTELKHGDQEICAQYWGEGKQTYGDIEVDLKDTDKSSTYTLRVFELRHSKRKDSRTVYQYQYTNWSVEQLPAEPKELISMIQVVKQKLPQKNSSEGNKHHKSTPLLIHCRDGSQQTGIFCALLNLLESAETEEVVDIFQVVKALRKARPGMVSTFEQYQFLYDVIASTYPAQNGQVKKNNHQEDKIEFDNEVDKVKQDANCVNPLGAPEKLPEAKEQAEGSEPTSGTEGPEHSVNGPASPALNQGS

[3] = target: T2, human CD45 on cells (PBMC, whole blood …); assay: cell-based or functional assay; remark: listed apart in the source
[4] = target: T1, CD45 domains 1-4 of the extracellular domain; assay: sedimentation velocity analytical ultracentrifugation, molar 1:1 mixture of CD45 ECD and BYbe
[5] = target: T1, CD45 domains 1-4 of the extracellular domain; assay: mass of the peaks seen in the mixture of CD45 ECD and 4133-6294 BYbe in solution; theoretical mass 552 kDa
[6] = target: T2, human CD45 on cells (PBMC, whole blood …); assay: cell-based or functional assay; remark: listed apart in the source
[7] = target: T1, CD45 domains 1-4 of the extracellular domain; assay: mass of the peaks seen in the mixture of CD45 ECD and 4133-6294 BYbe in solution; theoretical mass 276 kDa
[8] = target: T1, CD45 domains 1-4 of the extracellular domain; assay: sedimentation peaks of the mixture of CD45 ECD and 4133-6294 BYbe; stoichiometry assigned from modelled S values
[9] = target: T2, human CD45 on cells (PBMC, whole blood …); assay: cell-based or functional assay; remark: listed apart in the source
[10] = target: T1, CD45 domains 1-4 of the extracellular domain; assay: mass of the peaks seen in the mixture of CD45 ECD and 4133-6294 BYbe in solution; theoretical mass 414 kDa
[11] = target: T1, CD45 domains 1-4 of the extracellular domain; assay: mass of the peaks seen in the mixture of CD45 ECD and 4133-6294 BYbe in solution; theoretical mass 138 kDa

B1: 4133-6294 BYbe (bispecific antibody)
heavy: QEQLVESGGGLVQPEGSLTLTCTASGFSFSGNYYMCWVRQAPGKGLEWIGCLYTGSSGSTYYASWAKGRFTISKTSSTTVTLQMTSLTAADTATYFCARDLGYEIDGYGGLWGQGTLVTVSSGQPKAPSVFPLAPCCGDTPSSTVTLGCLVKGYLPEPVTVTWNSGTLTNGVRTFPSVRQSSGLYSLSSVVSVTSSSQPVTCNVAHPATNTKVDKTVAPSTCSKPGGGGSGGGGSEVQLVESGAELARPGASVKMSCKASGYTFTSYTMHWVKQRPGQCLEWIGYINPSSGYTEYNQKFKDKTTLTADKSSSTAYLQLSSLTSEDSAVYYCARVGDGFYPSWLAYWGQGTLVTVSSGGGGSGGGGSGGGGSGGGGSDIQMTQSPKFLLVSAGDRVTITCKASQSVRNDVAWYQQKPGQSPKLLIFYASKRYTGVPDRFTGSGYGTDFTFTISTVQAEDLAVYFCQQDYSSPTTFGCGTKLEIK
light: AQVLTQTPSPVSAVVGGTVSISCQASQSVYNNNNLSWYQQKPGQPPKLLIYDASKLASGVPSRFKGSGSGTQFTLTISGVQCDDAATYYCLGGYYSSGWYFAFGGGTKVVVKRTPVAPTVLIFPPAADQVATGTVTIVCVANKYFPDVTVTWEVDGTTQTTGIENSKTPQNSADCTYNLSSTLTLTSTQYNSHKEYTCKVTQGTTSVVQSFNRGDC
Which counts in the peak at 75 kDa (arrow from the BYbe schematic; unbound BYbe according to the text) [1] does the source give for B1 here?
The counts in the peak at 75 kDa (arrow from the BYbe schematic; unbound BYbe according to the text) was 3830 counts.

What about the counts in the peak at 136 kDa, complex marked (1x) [1] of the same binder?
Its counts in the peak at 136 kDa, complex marked (1x) is 3060 counts.

What about the counts in the peak at 274 kDa, complex marked (2x) [1] of the same binder?
Its counts in the peak at 274 kDa, complex marked (2x) is 3510 counts.

And the counts in the peak at 415 kDa, complex marked (3x) [1]?
Its counts in the peak at 415 kDa, complex marked (3x) is 464 counts.

What about the counts in the peak at 555 kDa, complex marked (4x) [1] of the same binder?
The counts in the peak at 555 kDa, complex marked (4x) was 137 counts.

What about the percent of counts in the peak at 75 kDa (arrow from the BYbe schematic; unbound BYbe according to the text) [1] of the same binder?
The percent of counts in the peak at 75 kDa (arrow from the BYbe schematic; unbound BYbe according to the text) was 31%.

And the percent of counts in the peak at 136 kDa, complex marked (1x) [1]?
Its percent of counts in the peak at 136 kDa, complex marked (1x) is 24%.

What about the percent of counts in the peak at 274 kDa, complex marked (2x) [1] of the same binder?
Its percent of counts in the peak at 274 kDa, complex marked (2x) is 28%.

And the percent of counts in the peak at 415 kDa, complex marked (3x) [1]?
The percent of counts in the peak at 415 kDa, complex marked (3x) was 4%.

And the percent of counts in the peak at 555 kDa, complex marked (4x) [1]?
The percent of counts in the peak at 555 kDa, complex marked (4x) was 1%.

And the “EC50 of subset cell reduction, B cells in PBMC, 24 h” value [2]?
Its value is 1.5 nM.

What about the “EC50 of subset cell reduction, CD4+ Memory cells in PBMC, 24 h” value [2] of the same binder?
Its value is 0.222 nM.

And the “EC50 of subset cell reduction, CD4+ Naive cells in PBMC, 24 h” value [2]?
The value was 0.524 nM.

What about the “EC50 of subset cell reduction, CD4+ cells in PBMC, 24 h” value [2] of the same binder?
Its value is 0.302 nM.

What about the “EC50 of subset cell reduction, CD8+ cells in PBMC, 24 h” value [2] of the same binder?
Its value is 0.187 nM.

What about the “EC50 of % cell reduction, CCRF-SB cells, 21 h” value [3] of the same binder?
Its value is 0.308 nM.

What about the “EC50 of % cell reduction, Dakiki cells, 21 h” value [3] of the same binder?
The value was 0.309 nM.

And the “EC50 of % cell reduction, Jurkat cells, 21 h” value [3]?
The value was 0.117 nM.

What about the “EC50 of % cell reduction, MC116 cells, 21 h” value [3] of the same binder?
Its value is 0.005 nM.

And the “EC50 of % cell reduction, NU-DUL-1 cells, 21 h” value [3]?
Its value is 0.497 nM.

And the “EC50 of % cell reduction, OCI-Ly3 cells, 21 h” value [3]?
Its value is 0.349 nM.

What about the “EC50 of % cell reduction, Raji cells, 21 h” value [3] of the same binder?
The value was 0.397 nM.

What about the “EC50 of % cell reduction, Ramos cells, 21 h” value [3] of the same binder?
The value was 0.14 nM.

What about the “EC50 of % cell reduction, SU-DHL-4 cells, 21 h” value [3] of the same binder?
The value was 0.141 nM.

And the “EC50 of % cell reduction, SU-DHL-5 cells, 21 h” value [3]?
The value was 0.043 nM.

What about the “EC50 of % cell reduction, SU-DHL-8 cells, 21 h” value [3] of the same binder?
The value was 1.46 nM.

And the “EC50 of % cell reduction, THP-1 cells, 21 h” value [3]?
Its value is 1.54 nM.

And the Percentage of area under the curve (CD45 1:1 BYbe complex) [4]?
Its Percentage of area under the curve (CD45 1:1 BYbe complex) is 12%.

And the Percentage of area under the curve (CD45 2:2 BYbe complex) [4]?
The Percentage of area under the curve (CD45 2:2 BYbe complex) was 37.7%.

And the Percentage of area under the curve (CD45 3:3 BYbe complex) [4]?
The Percentage of area under the curve (CD45 3:3 BYbe complex) was 35.7%.

And the Percentage of area under the curve (CD45 4:4 BYbe complex) [4]?
The Percentage of area under the curve (CD45 4:4 BYbe complex) was 3.46%.

And the Percentage of area under the curve (unbound CD45 in the 1:1 mixture) [4]?
The Percentage of area under the curve (unbound CD45 in the 1:1 mixture) was 9.21%.

What about the observed mass of the complex 4× (CD45 + BYbe) [5] of the same binder?
The observed mass of the complex 4× (CD45 + BYbe) was 555 kDa.

What about the “EC50 of reduction of lymphocytes in PBMC, 24 h (UCB Cone-802)” value [6] of the same binder?
Its value is 0.15 nM.

And the “EC50 of reduction of lymphocytes in PBMC, 24 h (UCB Cone-811)” value [6]?
The value was 0.1 nM.

And the observed mass of the complex 2× (CD45 + BYbe) [7]?
The observed mass of the complex 2× (CD45 + BYbe) was 274 kDa.

And the experimental S value of the complex CD45 1:1 BYbe [8]?
The experimental S value of the complex CD45 1:1 BYbe was 6.9 S.

What about the experimental S value of the complex CD45 2:1 BYbe [8] of the same binder?
The experimental S value of the complex CD45 2:1 BYbe was 7.15 S.

What about the experimental S value of the complex CD45 2:2 BYbe [8] of the same binder?
The experimental S value of the complex CD45 2:2 BYbe was 8.78 S.

And the experimental S value of the complex CD45 3:3 BYbe [8]?
The experimental S value of the complex CD45 3:3 BYbe was 10 S.

And the experimental S value of the complex CD45 4:3 BYbe [8]?
Its experimental S value of the complex CD45 4:3 BYbe is 11.1 S.

What about the experimental S value of the complex CD45 4:4 BYbe [8] of the same binder?
The experimental S value of the complex CD45 4:4 BYbe was 13.3 S.

And the “EC50 of reduction, CD4+ cells in whole blood, 5 h, Donor 1” value [9]?
The value was 0.25 nM.

And the “EC50 of reduction, CD4+ cells in whole blood, 5 h, Donor 2” value [9]?
Its value is 0.33 nM.

And the “EC50 of reduction, total lymphocytes in whole blood, 5 h, Donor 1” value [9]?
The value was 0.37 nM.

And the “EC50 of reduction, total lymphocytes in whole blood, 5 h, Donor 2” value [9]?
Its value is 5.99 nM.

What about the observed mass of the complex 3× (CD45 + BYbe) [10] of the same binder?
Its observed mass of the complex 3× (CD45 + BYbe) is 415 kDa.

What about the observed mass of the complex 1× (CD45 + BYbe) [11] of the same binder?
Its observed mass of the complex 1× (CD45 + BYbe) is 136 kDa.
